Values of other authors as cited in article PMC12669185.

Target: CCR2 (Homo sapiens) (UniProt P41597)
UniProt P41597, sequence (P41597 whole entry): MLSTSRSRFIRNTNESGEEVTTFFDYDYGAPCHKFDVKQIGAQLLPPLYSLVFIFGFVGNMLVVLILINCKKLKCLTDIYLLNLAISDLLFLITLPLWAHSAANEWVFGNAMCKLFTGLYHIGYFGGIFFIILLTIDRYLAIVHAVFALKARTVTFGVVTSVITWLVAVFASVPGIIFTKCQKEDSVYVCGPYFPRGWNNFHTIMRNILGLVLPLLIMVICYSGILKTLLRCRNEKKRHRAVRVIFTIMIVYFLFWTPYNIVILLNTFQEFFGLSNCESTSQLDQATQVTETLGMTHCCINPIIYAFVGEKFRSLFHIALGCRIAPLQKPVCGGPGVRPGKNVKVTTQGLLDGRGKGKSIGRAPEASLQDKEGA

## CCL2 (from UniProt P13500)
  Kd: 0.77 nM
